B1: 3CMP75 displayed on phage (monoclonal phage clone) (VHH)
VHH: QVQLQESGGGLVQAGGSLRLSCTASGRTFSSNAMAWFRLAPGKEREFVAAISGNGGSTTYADSVKGRVTISRDNAKNTVYLHMSSLKPEDTAVYYCNQRNFGRDGTLGDYWGNGTQVTVSS
notes: also called 3CMP75 phage clone; source: E. coli TG1 with phagemid, VCS-M13 helper phage, culture supernatant
B2: [^68Ga]Ga-NOTA-3CMP75 (VHH)
VHH: B1 VHH
notes: also called radiolabeled-NOTA conjugate of 3CMP75; source: E. coli WK6 periplasm, purified, conjugated with p-SCN-Bn-NOTA and labelled with 68Ga, PD-10 purified
B3: nanobody 3CMP75 (CDR3 group 6), purified (VHH)
VHH: B1 VHH
notes: Llama-derived VHH selected by phage display against CAT-MT1-MMP; also called Nb 3CMP75; 2CMP75 (as printed in two methods paragraphs); source: E. coli WK6 periplasm (pMECS), purified (IMAC HisTrap, SEC Superdex 75)
B4: 3TPA14 displayed on phage (monoclonal phage clone) (VHH)
VHH: QVQLQESGGGLVQAGGSLRLSCAASGLILSGFSTGWFRQAPGKEREFLSTISSAGTRTYYADSVKGRFTISRDNAKNTVYLQMNRLKPEDAGVYYCTGYGRRSMPALRPEEWTYWGQGTQVTVSS
notes: also called 3TPA14 phage clone; source: E. coli TG1 with phagemid, VCS-M13 helper phage, culture supernatant
B5: [^68Ga]Ga-NOTA-3TPA14 (VHH)
VHH: B4 VHH
notes: also called radiolabeled-NOTA conjugate of 3TPA14; source: E. coli WK6 periplasm, purified, conjugated with p-SCN-Bn-NOTA and labelled with 68Ga, PD-10 purified
B6: nanobody 3TPA14 (CDR3 group 1), purified (VHH)
VHH: B4 VHH
notes: Llama-derived VHH selected by phage display against CAT-MT1-MMP; also called Nb 3TPA14; source: E. coli WK6 periplasm (pMECS), purified (IMAC HisTrap, SEC Superdex 75)

How the values were obtained:
[1] = molecular target: T1, catalytic domain of human MT1-MMP (residues 119-290) (Homo sapiens, UniProt P50281); experiment: ELISA; monoclonal phage ELISA; MaxiSorp plates coated with CAT-MT1-MMP, MT2-MMP or MT3-MMP at 4°C overnight (BSA as negative control); culture supernatants with phages applied; anti-M13-HRP, OPD, OD490; conditions: one partner purified
T1 construct: membrane type 1-matrix metalloproteinase (MT1-MMP), human, catalytic domain, residues 119-290, expressed from pET3a; also called CAT-MT1-MMP; catalytic domain of membrane type 1-matrix metalloproteinase

[2] = molecular target: T1, catalytic domain of human MT1-MMP …; experiment: ELISA; MaxiSorp plates coated overnight at 4°C with CAT-MT1-MMP; blocked with 3% BSA in PBS; serial dilutions of nanobodies, 90 min at 37°C; HRP anti-HA mAb, TMB, OD450; conditions: both partners purified
[3] = molecular target: extracellular domain (ed) of MT1-MMP, Ala21-Ser538, Arg108Pro (Homo sapiens (species ; …, UniProt P50281, Arg108Pro); experiment: SPR; edMT1-MMP amine-coupled on a CM5 chip (104 RU); nanobody 16-250 nM, 3 min at 30 μl/min, 30 min dissociation; HBS-EP+ buffer; 25°C; Biacore X100; 1:1 binding model; conditions: both partners purified

Row | Binder | binding result [1] | binding result [2] | Kd [3] [nM]
1 | B1 | binds |  | 
2 | B2 |  | binds | 
3 | B3 |  | binds | 35 ± 3
4 | B4 | binds |  | 
5 | B5 |  | binds | 
6 | B6 |  | binds | 15.8 ± 0.3

From publication PMC9729729, “Development of anti-membrane type 1-matrix metalloproteinase nanobodies as immunoPET probes for triple negative breast cancer imaging” (Frontiers in Medicine, 2022)
